# Assay results taken from paper PMC5399792.
# B1: vRNA promoter v5' 1-14 + v3' 1-18 (crystal) (structured_RNA)
# RNA 1: AGUAGUAACAAGAG
# RNA 2: UAUACCUCUGCUUCUGCU
# modifications: 5'-monophosphate on v5'
# B2: v5' 1-10 + v3' 1-18 (mixed)
# RNA 1: AGUAGUAACA
# RNA 2: UAUACCUCUGCUUCUGCU
# Tests used:
# [1] = target: T1, influenza B polymerase (PA-PB1-PB2 heterotrimer, FluB) (Influenza B virus, UniProt Q5V8Z9;Q5V8Y6;Q5V8X3 1-726;1-752;1-770); assay: X-ray crystallography (3.8 A); settings: protein: recombinant, copies: 1;1;1
# [2] = target: T1, influenza B polymerase (PA-PB1-PB2 …); assay: fluorescence anisotropy; 1:1 stoichiometry; settings: protein: recombinant, copies: 1;1;1
# [3] = target: T1, influenza B polymerase (PA-PB1-PB2 …); assay: FRET / fluorescence titration; settings: protein: recombinant; copies: 1;1;1; label: 3'-FAM-Ex-5 on v5'; 5'-Cy3 on v3' (implied by FRET)
# [4] = label: FAM-Ex-5, 5' hook hairpin on polymerase
binder,measurement,setting,value
B1,binding result,[1],binds
AGUAGUAACA (ssRNA) [v5' 1-10],Kd,"[2]; label: 3'-FAM-Ex-5, 5' hook hairpin on polymerase",< 0.01 µM
UACCCUCUUGUUACUACU (ssRNA) [c3' 1-18],Kd,"[2]; label: FAM-Ex-5, single strand",< 0.01 µM
AGCAGAAGCAGAGGUAUA (ssRNA) [c5' 1-18],Kd,[2]; [4],< 0.01 µM
AGUAGUAACAAGAGGGUA (ssRNA) [v5' 1-18],Kd,[2]; [4],< 0.01 µM
B2,binding result,[3],binds
UAUACCUCUGCUUCUGCU (ssRNA) [v3' 1-18],Kd,"[2]; label: 5'-FAM-Ex-5, single strand",< 0.01 µM
"AAUCUAUAAUAGC (ssRNA, 5'-m7Gppp cap) [capped 13-mer primer]",binding result,[1]; single strand,binds
